First the molecules themselves.
B1: CPEB3 Ribozyme (parent)
chain: UAACAGGGGGCCACAGCAGAAGCGUUCACGUCGCAGCCCCUGUCAGAUUCUGGUGAAUCUGCGAAUUCUGCUGUAUAUCUC

Variants of B1 are the subject of the data set. Briefly: self-cleavage, relative activity (ratio to wild type); higher = more cleavage; in vitro, sequencing. A digest of the protocol:
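Relative activity compares each variant's cleaved/total read fraction with that of the unmutated ribozyme. To get these fractions, barcoded CPEB3 ribozyme libraries from rounds of error-prone PCR were transcribed with T7 RNA polymerase for 5 hours at 37°C and then given 15 min of DNase I treatment before EDTA was added. The RNAs were reverse transcribed with template switching and sequenced on Illumina, and DNA sequencing linked barcodes to variants. A minimum of 5 reads applied, and three batches were averaged.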
Take UAACAGGGGGCCACAGCAGAUGCGUUCACGUCGCAGCCCCUGUCAGAUUCUGGUGAAUCUACGAAUUCUGCUGUAUAUCUC [A21U G61A]: the self-cleavage was found to be 0.34. Next, UAACAGGGGGCCACAGCAGAAGCGUCCACGUCGCAGCCCCUGUCAGAUUCAGGUGAAUCUGCGAAUUCUGCUGUAUAUCUC [U26C U51A]: 0.43; UAACAGGGAGCCACAGCAGAAGCGUUCACGUCGCAGCACCUGUCAGAUUCUGGUGAAUCUGCGAAUUCUGCUGUAUAUCUC [G9A C38A]: 0.25. Next, UAACAGGGGGCCACAGCAGAAGCGUCCACGUCGCAGCCCCUGUCAGAUUCUGGUGAAUCUGAGAAUUCUGCUGUAUAUCUC [U26C C62A]: 0.38. Next, UAACAGGGGGCCACAGCAGAAGCGUCCACGUCGCAGACCCUGUCAGAUUCUGGUGAAUCUGCGAAUUCUGCUGUAUAUCUC [U26C C37A]: 0.13; UAACAGGGGGCCACAGCAGAAGCGUUCACGUCGCAGCCCCUGUCAGAUUCUGGUGAAUCUGCGAAUUCUGCCAUAUAUCUC [U72C G73A]: 1.25; UAACAGGGGGCCACAGCAGAAGCGUUCACGCCGCAGCCACUGUCAGAUUCUGGUGAAUCUGCGAAUUCUGCUGUAUAUCUC [U31C C39A]: 0.18.

On to UAACAGGGGGCCGCAGCAGAAGCGUUCACGUCGCAGCCCCUGUCAGAUUCUGGUGAAUCUGCGAAUUCUGCUGUAGAUCUC [A13G U76G], for which the self-cleavage turned out to be 1.08. Next, UAACAGGGGGCCACAGCAGAAGCGUUCACGUCGCAGCCCCUGUCAGAUUCUGGUGAAUCUGCGAAUUCUGCUGUAGAUCUC [U76G]: 0.9; UAACAGGGGGCCACAGCAUAAGCGUUCACGUCGCAGCCCCUGUCAGAUUCUGGUGAAUCUGCGAAUUCUGCUGUAUAUCUU [G19U C81U]: 0.34. Then UAACAGGGGGCCGCAGCAGAAGCGUUCACGUCGCAGCCCCUGUCAGAUUCUGGUGAAUCUGCGAAUUCUGCUGUAUAACUC [A13G U78A], with 1.01; and UAACAGGGGGCCACAGCAGAAGCGUUCACGUCGCAGCCCCUGUUAGAUUCUGGUGAAUCUGCGAAUUCAGCUGUAUAUCUC [C44U U69A], with 0.13; and UAACAGGGGGCCACAGCAGAAGCGUUCACGUCGCAGCCCCUGUCAGAUUCUGGUGAAUCUGUGAAUUCUGCUGUAUAUCCC [C62U U80C], with 0.28. Then UAACAGGGGGCCACAGCAGGAGCGUUCACGUCGCAGCCCCUGUCAGAUUCUGGUGAAUCUGCGAAUUCUGCUGUAUGUCUC [A20G A77G], with 0.91; and UAACGGGGGGCCACAGCAGAAGCGUUCACGUCGCAUCCCCUGUCAGAUUCUGGUGAAUCUGCGAAUUCUGCUGUAUAUCUC [A5G G36U], with 0.72. As to UAACAGGGGGACACAGCAGAAGCGUUCACGUCGCAGCCCCUGUCAGACUCUGGUGAAUCUGCGAAUUCUGCUGUAUAUCUC [C11A U48C], the self-cleavage came to 0.32.

With UAACAGGGGGCCACAGCAGAAGCGUUCACGUCGCAGCCCCUGGCAGAUUCUGGUGAAUCUGCGAAUCCUGCUGUAUAUCUC [U43G U67C], the self-cleavage amounted to 0.11. Next, UAACAGGGGGCCACAGCAGAAGCGUUCGCGUCGCAGCCCCUGUCAGAUUCUGGUGAAUCUGCGAAUUCUGCUAUAUAUCUC [A28G G73A]: 1.16. Next, UAACAGGGGGCCACAGCAGAAGCGUUCACGUCGCAGCCCCUGUCAGAUUCUGGUGAAUCCGCGAAUUCUUCUGUAUAUCUC [U60C G70U]: 0.44; UAACAGGGGGCCACAGCAGAAGCGUUCACGUCGCAGCCCCUGUCAGAUUCUGGUGAAUCUGCGAAUUCGGCUGUAAAUCUC [U69G U76A]: 0.94; UGACAGGGGGCCACAGCAGAAGCGUUCACGUCGCAGCCCCUGUCAGAUUCUGGUGAAUCUGCGAAGUCUGCUGUAUAUCUC [A2G U66G]: 0.28. UAACAGGGGGCCACAGCAGAACCGUUCACGUCGCAGCCCCUGUCAGAUUCUGGUGUAUCUGCGAAUUCUGCUGUAUAUCUC [G22C A56U]: the self-cleavage was determined as 0.14.

Consider UAACAGGGGGCCACAGCAGAAGCGUUCACGUCGCAGCCCCUGUCCGAUUCUGGUGAAUCUGCGGAUUCUGCUGUAUAUCUC [A45C A64G], for which the self-cleavage came to 0.32. Then UAACAGGGGGCCACAACAGAAGCGUCCACGUCGCAGCCCCUGUCAGAUUCUGGUGAAUCUGCGAAUUCUGCUGUAUAUCUC [G16A U26C], with 0.13; and UAACAGGGGGCCACAGCAGAAGCGUUUACGUCGCAGCCCCUGUCAGAUUCUGGUGAAUCUGCGAAUUCUGCUGUAUAUCUC [C27U], with 0.29; and UAACAGGGGGCCACAGCAGAAGCGUUCACGACGCAGCCCCUGUCAGAUUCUGGUGAAUCUGCGAAUUCUGCUGAAUAUCUC [U31A U74A], with 0.74. Take UAACAGGGGGCCACAGCAGAAGCGUUGACGUCGCAGCCCCUGUCAGAUUCUGGUGAAUCUGCGAAUUCUGCUGUGUAUCUC [C27G A75G]: the self-cleavage worked out at 0.3. Next, UAACAGGGAGCCACAGCAGAAGCGUUCGCGUCGCAGCCCCUGUCAGAUUCUGGUGAAUCUGCGAAUUCUGCUGUAUAUCUC [G9A A28G]: 0.24. Next, UAACAGGGGGCCAUAGCAGAAGCGUUCACGUCGCAGCCCCUGUCAGAUUCUGGUGAAUCUGCGAAUACUGCUGUAUAUCUC [C14U U67A]: 0.42; UAACAGGGGGCCACAGCAGAAGCGUUCAGGUCGCAGCCCCCGUCAGAUUCUGGUGAAUCUGCGAAUUCUGCUGUAUAUCUC [C29G U41C]: 0.2. Then UAGCAGGGGGCCACAGCAGAAGCGUUCACGUCGCAACCCCUGUCAGAUUCUGGUGAAUCUGCGAAUUCUGCUGUAUAUCUC [A3G G36A], with 0.2; and UAACAGGGGGCCACAACAGAAGCGUUCACGUCGCAGCCCCUGUCAGAUUCUGGUGAAUCUGCGAAUUCUGCCGUAUAUCUC [G16A U72C], with 0.79.

As to UAACAGGGAGCCACAGCAGAAGCGUGCACGUCGCAGCCCCUGUCAGAUUCUGGUGAAUCUGCGAAUUCUGCUGUAUAUCUC [G9A U26G], the self-cleavage came to 0.07. Next, UAACAGGGGGCCACAGCAGAAGCGUUCACAUCGCAGCCCCUGUCAGAUUCUGGUGAAUCUGCGAAUUCCGCUGUAUAUCUC [G30A U69C]: 0.33.
